Measurements as given in PMC10786891, “Massively parallel profiling of RNA-targeting CRISPR-Cas13d”.

T1: EsCas13d, nuclease-dead (Eubacterium siraeum, UniProt B0MS50, R295A;H300A;R849A;H854A)
T1 sequence: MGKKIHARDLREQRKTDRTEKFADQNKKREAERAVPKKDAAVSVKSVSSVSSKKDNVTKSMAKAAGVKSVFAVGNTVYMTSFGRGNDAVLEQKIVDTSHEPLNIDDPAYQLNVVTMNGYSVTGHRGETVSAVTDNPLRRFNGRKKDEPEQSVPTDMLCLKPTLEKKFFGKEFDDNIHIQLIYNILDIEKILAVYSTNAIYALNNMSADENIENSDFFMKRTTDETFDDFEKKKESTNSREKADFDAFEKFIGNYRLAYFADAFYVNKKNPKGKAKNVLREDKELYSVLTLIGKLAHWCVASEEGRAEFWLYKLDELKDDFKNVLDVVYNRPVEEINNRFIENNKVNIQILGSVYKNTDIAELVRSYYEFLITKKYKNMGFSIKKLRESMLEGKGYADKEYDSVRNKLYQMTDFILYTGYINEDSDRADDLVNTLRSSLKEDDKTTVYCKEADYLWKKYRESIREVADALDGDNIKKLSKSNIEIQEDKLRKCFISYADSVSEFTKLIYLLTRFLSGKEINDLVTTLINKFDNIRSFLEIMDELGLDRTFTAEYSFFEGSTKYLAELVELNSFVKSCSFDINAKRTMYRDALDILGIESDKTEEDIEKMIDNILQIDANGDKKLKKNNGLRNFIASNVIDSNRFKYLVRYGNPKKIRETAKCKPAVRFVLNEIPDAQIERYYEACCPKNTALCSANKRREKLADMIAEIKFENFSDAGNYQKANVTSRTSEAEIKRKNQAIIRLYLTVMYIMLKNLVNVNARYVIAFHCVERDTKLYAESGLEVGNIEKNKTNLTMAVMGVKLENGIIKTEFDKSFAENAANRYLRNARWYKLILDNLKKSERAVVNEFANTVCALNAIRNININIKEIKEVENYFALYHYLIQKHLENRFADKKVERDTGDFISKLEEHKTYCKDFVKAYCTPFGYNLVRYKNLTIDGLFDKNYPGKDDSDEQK

B1: target 1 A1C,A9C (mixed)
RNA 1: CACCCGUGCAAAAAUGCAGGGGUCUAAAACUGAGCGGAUAACCUCUCUAUGG
RNA 2: GGGAAUGGAUCCACAUCUACGAAUUCGUACCAUAGAGAGGUUCUCCGCUCCCCGAGAUCGGAAGAGCACACGU
B2: target 1 insU 3' of 14,insU 3' of 1 (mixed)
RNA 1: CACCCGUGCAAAAAUGCAGGGGUCUAAAACUGAGCGGAUAACCUCUCUAUGG
RNA 2: GGGAAUGGAUCCACAUCUACGAAUUCGUACCAUAGAGAUGGUUAUCCGCUCAUCCGAGAUCGGAAGAGCACACGU
B3: target 1 U8G,G15C (mixed)
RNA 1: CACCCGUGCAAAAAUGCAGGGGUCUAAAACUGAGCGGAUAACCUCUCUAUGG
RNA 2: GGGAAUGGAUCCACAUCUACGAAUUCGUACCAUAGACAGGUUAGCCGCUCACCGAGAUCGGAAGAGCACACGU
B4: target 1 insC 3' of 19,insA 3' of 4 (mixed)
RNA 1: CACCCGUGCAAAAAUGCAGGGGUCUAAAACUGAGCGGAUAACCUCUCUAUGG
RNA 2: GGGAAUGGAUCCACAUCUACGAAUUCGUACCAUCAGAGAGGUUAUCCGCAUCACCGAGAUCGGAAGAGCACACGU
B5: target 1 insA 3' of 15,insA 3' of 3 (mixed)
RNA 1: CACCCGUGCAAAAAUGCAGGGGUCUAAAACUGAGCGGAUAACCUCUCUAUGG
RNA 2: GGGAAUGGAUCCACAUCUACGAAUUCGUACCAUAGAGAAGGUUAUCCGCUACACCGAGAUCGGAAGAGCACACGU
B6: target 1 insG 3' of 11,insU 3' of 7 (mixed)
RNA 1: CACCCGUGCAAAAAUGCAGGGGUCUAAAACUGAGCGGAUAACCUCUCUAUGG
RNA 2: GGGAAUGGAUCCACAUCUACGAAUUCGUACCAUAGAGAGGUGUAUCUCGCUCACCGAGAUCGGAAGAGCACACGU
B7: target 1 G5C,U11A (mixed)
RNA 1: CACCCGUGCAAAAAUGCAGGGGUCUAAAACUGAGCGGAUAACCUCUCUAUGG
RNA 2: GGGAAUGGAUCCACAUCUACGAAUUCGUACCAUAGAGAGGAUAUCCCCUCACCGAGAUCGGAAGAGCACACGU
B8: target 1 U10C,G17U (mixed)
RNA 1: CACCCGUGCAAAAAUGCAGGGGUCUAAAACUGAGCGGAUAACCUCUCUAUGG
RNA 2: GGGAAUGGAUCCACAUCUACGAAUUCGUACCAUAUAGAGGUCAUCCGCUCACCGAGAUCGGAAGAGCACACGU
B9: target 1 insU 3' of 21,insG 3' of 3 (mixed)
RNA 1: CACCCGUGCAAAAAUGCAGGGGUCUAAAACUGAGCGGAUAACCUCUCUAUGG
RNA 2: GGGAAUGGAUCCACAUCUACGAAUUCGUACCUAUAGAGAGGUUAUCCGCUGCACCGAGAUCGGAAGAGCACACGU
B10: target 1 insU 3' of 9,insC 3' of 1 (mixed)
RNA 1: CACCCGUGCAAAAAUGCAGGGGUCUAAAACUGAGCGGAUAACCUCUCUAUGG
RNA 2: GGGAAUGGAUCCACAUCUACGAAUUCGUACCAUAGAGAGGUUAUUCCGCUCACCCGAGAUCGGAAGAGCACACGU
B11: target 1 insC 3' of 19,insG 3' of 16 (mixed)
RNA 1: CACCCGUGCAAAAAUGCAGGGGUCUAAAACUGAGCGGAUAACCUCUCUAUGG
RNA 2: GGGAAUGGAUCCACAUCUACGAAUUCGUACCAUCAGAGGAGGUUAUCCGCUCACCGAGAUCGGAAGAGCACACGU
B12: target 1 insC 3' of 1,insC 3' of 1 (mixed)
RNA 1: CACCCGUGCAAAAAUGCAGGGGUCUAAAACUGAGCGGAUAACCUCUCUAUGG
RNA 2: GGGAAUGGAUCCACAUCUACGAAUUCGUACCAUAGAGAGGUUAUCCGCUCACCCCGAGAUCGGAAGAGCACACGU
B13: target 1 insC 3' of 18,insA 3' of 13 (mixed)
RNA 1: CACCCGUGCAAAAAUGCAGGGGUCUAAAACUGAGCGGAUAACCUCUCUAUGG
RNA 2: GGGAAUGGAUCCACAUCUACGAAUUCGUACCAUACGAGAGAGUUAUCCGCUCACCGAGAUCGGAAGAGCACACGU
B14: target 1 insG 3' of 8,insC 3' of 1 (mixed)
RNA 1: CACCCGUGCAAAAAUGCAGGGGUCUAAAACUGAGCGGAUAACCUCUCUAUGG
RNA 2: GGGAAUGGAUCCACAUCUACGAAUUCGUACCAUAGAGAGGUUAUGCCGCUCACCCGAGAUCGGAAGAGCACACGU
B15: target 1 insG 3' of 19,insA 3' of 4 (mixed)
RNA 1: CACCCGUGCAAAAAUGCAGGGGUCUAAAACUGAGCGGAUAACCUCUCUAUGG
RNA 2: GGGAAUGGAUCCACAUCUACGAAUUCGUACCAUGAGAGAGGUUAUCCGCAUCACCGAGAUCGGAAGAGCACACGU
B16: target 1 insC 3' of 3,insA 3' of 3 (mixed)
RNA 1: CACCCGUGCAAAAAUGCAGGGGUCUAAAACUGAGCGGAUAACCUCUCUAUGG
RNA 2: GGGAAUGGAUCCACAUCUACGAAUUCGUACCAUAGAGAGGUUAUCCGCUCACACCGAGAUCGGAAGAGCACACGU
B17: target 1 C6G,A18G (mixed)
RNA 1: CACCCGUGCAAAAAUGCAGGGGUCUAAAACUGAGCGGAUAACCUCUCUAUGG
RNA 2: GGGAAUGGAUCCACAUCUACGAAUUCGUACCAUGGAGAGGUUAUCGGCUCACCGAGAUCGGAAGAGCACACGU
B18: target 1 insC 3' of 3,insG 3' of 1 (mixed)
RNA 1: CACCCGUGCAAAAAUGCAGGGGUCUAAAACUGAGCGGAUAACCUCUCUAUGG
RNA 2: GGGAAUGGAUCCACAUCUACGAAUUCGUACCAUAGAGAGGUUAUCCGCUCCAGCCGAGAUCGGAAGAGCACACGU
B19: target 1 insU 3' of 14,insA 3' of 10 (mixed)
RNA 1: CACCCGUGCAAAAAUGCAGGGGUCUAAAACUGAGCGGAUAACCUCUCUAUGG
RNA 2: GGGAAUGGAUCCACAUCUACGAAUUCGUACCAUAGAGAUGGUUAAUCCGCUCACCGAGAUCGGAAGAGCACACGU
B20: target 1 insC 3' of 3,insU 3' of 1 (mixed)
RNA 1: CACCCGUGCAAAAAUGCAGGGGUCUAAAACUGAGCGGAUAACCUCUCUAUGG
RNA 2: GGGAAUGGAUCCACAUCUACGAAUUCGUACCAUAGAGAGGUUAUCCGCUCCAUCCGAGAUCGGAAGAGCACACGU
B21: target 1 insC 3' of 3,insC 3' of 1 (mixed)
RNA 1: CACCCGUGCAAAAAUGCAGGGGUCUAAAACUGAGCGGAUAACCUCUCUAUGG
RNA 2: GGGAAUGGAUCCACAUCUACGAAUUCGUACCAUAGAGAGGUUAUCCGCUCCACCCGAGAUCGGAAGAGCACACGU
B22: target 1 insA 3' of 7,insG 3' of 6 (mixed)
RNA 1: CACCCGUGCAAAAAUGCAGGGGUCUAAAACUGAGCGGAUAACCUCUCUAUGG
RNA 2: GGGAAUGGAUCCACAUCUACGAAUUCGUACCAUAGAGAGGUUAUCACGGCUCACCGAGAUCGGAAGAGCACACGU
B23: target 1 insC 3' of 11,insA 3' of 2 (mixed)
RNA 1: CACCCGUGCAAAAAUGCAGGGGUCUAAAACUGAGCGGAUAACCUCUCUAUGG
RNA 2: GGGAAUGGAUCCACAUCUACGAAUUCGUACCAUAGAGAGGUCUAUCCGCUCAACCGAGAUCGGAAGAGCACACGU
B24: target 1 insG 3' of 9 (mixed)
RNA 1: CACCCGUGCAAAAAUGCAGGGGUCUAAAACUGAGCGGAUAACCUCUCUAUGG
RNA 2: GGGAAUGGAUCCACAUCUACGAAUUCGUACCAUAGAGAGGUUAGUCCGCUCACCGAGAUCGGAAGAGCACACGU
B25: target 1 insC 3' of 12,insU 3' of 5 (mixed)
RNA 1: CACCCGUGCAAAAAUGCAGGGGUCUAAAACUGAGCGGAUAACCUCUCUAUGG
RNA 2: GGGAAUGGAUCCACAUCUACGAAUUCGUACCAUAGAGAGGCUUAUCCGUCUCACCGAGAUCGGAAGAGCACACGU
B26: target 1 insC 3' of 15,insC 3' of 5 (mixed)
RNA 1: CACCCGUGCAAAAAUGCAGGGGUCUAAAACUGAGCGGAUAACCUCUCUAUGG
RNA 2: GGGAAUGGAUCCACAUCUACGAAUUCGUACCAUAGAGCAGGUUAUCCGCCUCACCGAGAUCGGAAGAGCACACGU
B27: target 1 insC 3' of 22,insG 3' of 21 (mixed)
RNA 1: CACCCGUGCAAAAAUGCAGGGGUCUAAAACUGAGCGGAUAACCUCUCUAUGG
RNA 2: GGGAAUGGAUCCACAUCUACGAAUUCGUACCCGAUAGAGAGGUUAUCCGCUCACCGAGAUCGGAAGAGCACACGU
B28: target 1 G17A,C22U (mixed)
RNA 1: CACCCGUGCAAAAAUGCAGGGGUCUAAAACUGAGCGGAUAACCUCUCUAUGG
RNA 2: GGGAAUGGAUCCACAUCUACGAAUUCGUAUCAUAAAGAGGUUAUCCGCUCACCGAGAUCGGAAGAGCACACGU

The binders below were run against T1, EsCas13d, nuclease-dead (assay: crRNA (strand 1, pre-loaded); Mg2+; 40 mM Tris-HCl pH 7.5, 150 mM NaCl, 6 mM MgCl2, 1 mM DTT, 0.1% Tween-20, 0.2 mg/ml BSA; 25 C; 10 min per concentration, then washed). Conditions: tags: His6-TwinStrep-SUMO cleaved; N-terminal SNAP kept (SNAP-Surface 488); label: 3' end held by stalled T7 RNA polymerase.
For B1, the Kd was 22.5 ± 3 nM.
For B2, the Kd was 48 ± 8 nM.
For B3, the Kd was 90 ± 19 nM.
Work on B4 yielded a Kd of 25 ± 6 nM.
B5 was tested, and the Kd was 7.48 ± 0.34 nM.
With B6 the Kd was 24.9 ± 0.8 nM.
In the case of B7, the Kd is reported as 46 ± 10 nM.
With B8 the Kd was 55 ± 4 nM.
Binder B9 has a Kd of 16.8 ± 0.7 nM.
B10 was tested, and the Kd was 14.8 ± 0.7 nM.
Binder B11 has a Kd of 61 ± 11 nM.
Binder B12 has a Kd of 11.2 ± 0.5 nM.
Work on B13 yielded a Kd of 24.4 ± 1.9 nM.
Binder B14 has a Kd of 11.6 ± 0.5 nM.
With B15 the Kd was 34.8 ± 3.1 nM.
Work on B16 yielded a Kd of 9.8 ± 0.5 nM.
Binder B17 has a Kd of 48 ± 7 nM.
Binder B18 has a Kd of 11.1 ± 0.8 nM.
With B19 the Kd was 43 ± 5 nM.
B20 gave a Kd of 10.8 ± 0.8 nM.
For B21, the Kd was 15.8 ± 1.1 nM.
B22 gave a Kd of 8.09 ± 0.34 nM.
B23 was tested, and the Kd was 38 ± 4 nM.
For B24, the Kd was 17.2 ± 1 nM.
In the case of B25, the Kd is reported as 11.6 ± 1.5 nM.
B26 was tested, and the Kd was 9.8 ± 0.4 nM.
With B27 the Kd was 27.3 ± 3.1 nM.
In the case of B28, the Kd is reported as 59 ± 11 nM.
